Data as given in paper PMC4007430.

T1: CCL22 labeled with Alexa Fluor 647, O00626
T1 chain: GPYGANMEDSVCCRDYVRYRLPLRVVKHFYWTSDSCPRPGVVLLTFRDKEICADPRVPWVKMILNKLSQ


Experiments:
[1] = molecular target: T1, CCL22 labeled with Alexa Fluor 647, …; experiment: flow cytometry on cells; settings: chain shown with the change;; parent: est. 47; read off a plot
[2] = molecular target: CCL2 labeled with Alexa Fluor 647, P13500; experiment: flow cytometry on cells; settings: read off a plot
[3] = chain shown with the change;, parent: est. 195

Sequence of CCL2 labeled with Alexa Fluor 647, P13500 (P13500 24-99): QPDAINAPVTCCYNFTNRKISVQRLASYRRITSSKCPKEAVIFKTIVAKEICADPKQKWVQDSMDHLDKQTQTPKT

Row | response [1] [MFI] | response [2, 3] [MFI] | other results | Binder
1 | 18 |  |  | HA-ACKR2 (epitope-tagged human ACKR2, wild type), O00590 YYYDY to FFYDF (first, second and fourth tyrosines of the motif to F) (protein) MAATASPQPLATEDADSENSSFFFYDFLDEVAFMLCRKDAVVSFGKVFLPVFYSLIFVLGLSGNLLLLMVLLRYVPRRRMVEIYLLNLAISNLLFLVTLPFWGISVAWHWVFGSFLCKMVSTLYTINFYSGIFFISCMSLDKYLEIVHAQPYHRLRTRAKSLLLATIVWAVSLAVSIPDMVFVQTHENPKGVWNCHADFGGHGTIWKLFLRFQQNLLGFLLPLLAMIFFYSRIGCVLVRLRPAGQGRALKIAAALVVAFFVLWFPYNLTLFLHTLLDLQVFGNCEVSQHLDYALQVTESIAFLHCCFSPILYAFSSHRFRQYLKAFLAAVLGWHLAPGTAQASLSSCSESSILTAQEEMTGMNDLGERQSENYPNKEDVGNKSA
2 |  | 180 |  | HA-ACKR2 (epitope-tagged human ACKR2, wild type), O00590 YYYDY to YYYDF (fourth tyrosine of the motif to F) (protein) MAATASPQPLATEDADSENSSFYYYDFLDEVAFMLCRKDAVVSFGKVFLPVFYSLIFVLGLSGNLLLLMVLLRYVPRRRMVEIYLLNLAISNLLFLVTLPFWGISVAWHWVFGSFLCKMVSTLYTINFYSGIFFISCMSLDKYLEIVHAQPYHRLRTRAKSLLLATIVWAVSLAVSIPDMVFVQTHENPKGVWNCHADFGGHGTIWKLFLRFQQNLLGFLLPLLAMIFFYSRIGCVLVRLRPAGQGRALKIAAALVVAFFVLWFPYNLTLFLHTLLDLQVFGNCEVSQHLDYALQVTESIAFLHCCFSPILYAFSSHRFRQYLKAFLAAVLGWHLAPGTAQASLSSCSESSILTAQEEMTGMNDLGERQSENYPNKEDVGNKSA
3 | 24 |  |  | HA-ACKR2 (epitope-tagged human ACKR2, wild type), O00590 YYYDY to FFFDY (first, second and third tyrosines of the motif to F) (protein) MAATASPQPLATEDADSENSSFFFFDYLDEVAFMLCRKDAVVSFGKVFLPVFYSLIFVLGLSGNLLLLMVLLRYVPRRRMVEIYLLNLAISNLLFLVTLPFWGISVAWHWVFGSFLCKMVSTLYTINFYSGIFFISCMSLDKYLEIVHAQPYHRLRTRAKSLLLATIVWAVSLAVSIPDMVFVQTHENPKGVWNCHADFGGHGTIWKLFLRFQQNLLGFLLPLLAMIFFYSRIGCVLVRLRPAGQGRALKIAAALVVAFFVLWFPYNLTLFLHTLLDLQVFGNCEVSQHLDYALQVTESIAFLHCCFSPILYAFSSHRFRQYLKAFLAAVLGWHLAPGTAQASLSSCSESSILTAQEEMTGMNDLGERQSENYPNKEDVGNKSA
4 | 19 |  |  | HA-ACKR2 (epitope-tagged human ACKR2, wild type), O00590 YYYDY to FYFDF (first, third and fourth tyrosines of the motif to F) (protein) MAATASPQPLATEDADSENSSFFYFDFLDEVAFMLCRKDAVVSFGKVFLPVFYSLIFVLGLSGNLLLLMVLLRYVPRRRMVEIYLLNLAISNLLFLVTLPFWGISVAWHWVFGSFLCKMVSTLYTINFYSGIFFISCMSLDKYLEIVHAQPYHRLRTRAKSLLLATIVWAVSLAVSIPDMVFVQTHENPKGVWNCHADFGGHGTIWKLFLRFQQNLLGFLLPLLAMIFFYSRIGCVLVRLRPAGQGRALKIAAALVVAFFVLWFPYNLTLFLHTLLDLQVFGNCEVSQHLDYALQVTESIAFLHCCFSPILYAFSSHRFRQYLKAFLAAVLGWHLAPGTAQASLSSCSESSILTAQEEMTGMNDLGERQSENYPNKEDVGNKSA
5 | 71 |  |  | HA-ACKR2 (epitope-tagged human ACKR2, wild type), O00590 YYYDY to YFYDY (second tyrosine of the motif to F) (protein) MAATASPQPLATEDADSENSSFYFYDYLDEVAFMLCRKDAVVSFGKVFLPVFYSLIFVLGLSGNLLLLMVLLRYVPRRRMVEIYLLNLAISNLLFLVTLPFWGISVAWHWVFGSFLCKMVSTLYTINFYSGIFFISCMSLDKYLEIVHAQPYHRLRTRAKSLLLATIVWAVSLAVSIPDMVFVQTHENPKGVWNCHADFGGHGTIWKLFLRFQQNLLGFLLPLLAMIFFYSRIGCVLVRLRPAGQGRALKIAAALVVAFFVLWFPYNLTLFLHTLLDLQVFGNCEVSQHLDYALQVTESIAFLHCCFSPILYAFSSHRFRQYLKAFLAAVLGWHLAPGTAQASLSSCSESSILTAQEEMTGMNDLGERQSENYPNKEDVGNKSA
6 | 22 |  |  | HA-ACKR2 (epitope-tagged human ACKR2, wild type), O00590 YYYDY to YFFDF (second, third and fourth tyrosines of the motif to F) (protein) MAATASPQPLATEDADSENSSFYFFDFLDEVAFMLCRKDAVVSFGKVFLPVFYSLIFVLGLSGNLLLLMVLLRYVPRRRMVEIYLLNLAISNLLFLVTLPFWGISVAWHWVFGSFLCKMVSTLYTINFYSGIFFISCMSLDKYLEIVHAQPYHRLRTRAKSLLLATIVWAVSLAVSIPDMVFVQTHENPKGVWNCHADFGGHGTIWKLFLRFQQNLLGFLLPLLAMIFFYSRIGCVLVRLRPAGQGRALKIAAALVVAFFVLWFPYNLTLFLHTLLDLQVFGNCEVSQHLDYALQVTESIAFLHCCFSPILYAFSSHRFRQYLKAFLAAVLGWHLAPGTAQASLSSCSESSILTAQEEMTGMNDLGERQSENYPNKEDVGNKSA
7 |  | 180 |  | HA-ACKR2 (epitope-tagged human ACKR2, wild type), O00590 YYYDY to FYYDY (first tyrosine of the motif to F) (protein) MAATASPQPLATEDADSENSSFFYYDYLDEVAFMLCRKDAVVSFGKVFLPVFYSLIFVLGLSGNLLLLMVLLRYVPRRRMVEIYLLNLAISNLLFLVTLPFWGISVAWHWVFGSFLCKMVSTLYTINFYSGIFFISCMSLDKYLEIVHAQPYHRLRTRAKSLLLATIVWAVSLAVSIPDMVFVQTHENPKGVWNCHADFGGHGTIWKLFLRFQQNLLGFLLPLLAMIFFYSRIGCVLVRLRPAGQGRALKIAAALVVAFFVLWFPYNLTLFLHTLLDLQVFGNCEVSQHLDYALQVTESIAFLHCCFSPILYAFSSHRFRQYLKAFLAAVLGWHLAPGTAQASLSSCSESSILTAQEEMTGMNDLGERQSENYPNKEDVGNKSA
8 | 7.5 | 26 | response ([2]; chain shown with the change, 10 µg/ml Alexa-CCL2, parent: est. 28): 3 MFI; response ([2]; chain shown with the change, 20 µg/ml Alexa-CCL2, parent: est. 37): 3 MFI; response ([2]; chain shown with the change, 30 µg/ml Alexa-CCL2, parent: est. 54): 6 MFI | HA-ACKR2 (epitope-tagged human ACKR2, wild type), O00590 YYYDY to FFFDF (all four tyrosines of the motif to F) (protein) MAATASPQPLATEDADSENSSFFFFDFLDEVAFMLCRKDAVVSFGKVFLPVFYSLIFVLGLSGNLLLLMVLLRYVPRRRMVEIYLLNLAISNLLFLVTLPFWGISVAWHWVFGSFLCKMVSTLYTINFYSGIFFISCMSLDKYLEIVHAQPYHRLRTRAKSLLLATIVWAVSLAVSIPDMVFVQTHENPKGVWNCHADFGGHGTIWKLFLRFQQNLLGFLLPLLAMIFFYSRIGCVLVRLRPAGQGRALKIAAALVVAFFVLWFPYNLTLFLHTLLDLQVFGNCEVSQHLDYALQVTESIAFLHCCFSPILYAFSSHRFRQYLKAFLAAVLGWHLAPGTAQASLSSCSESSILTAQEEMTGMNDLGERQSENYPNKEDVGNKSA
9 |  | 180 |  | HA-ACKR2 (epitope-tagged human ACKR2, wild type), O00590 YYYDY to YYFDY (third tyrosine of the motif to F) (protein) MAATASPQPLATEDADSENSSFYYFDYLDEVAFMLCRKDAVVSFGKVFLPVFYSLIFVLGLSGNLLLLMVLLRYVPRRRMVEIYLLNLAISNLLFLVTLPFWGISVAWHWVFGSFLCKMVSTLYTINFYSGIFFISCMSLDKYLEIVHAQPYHRLRTRAKSLLLATIVWAVSLAVSIPDMVFVQTHENPKGVWNCHADFGGHGTIWKLFLRFQQNLLGFLLPLLAMIFFYSRIGCVLVRLRPAGQGRALKIAAALVVAFFVLWFPYNLTLFLHTLLDLQVFGNCEVSQHLDYALQVTESIAFLHCCFSPILYAFSSHRFRQYLKAFLAAVLGWHLAPGTAQASLSSCSESSILTAQEEMTGMNDLGERQSENYPNKEDVGNKSA
